T1: endogenous GLP-1 receptor of a murine insulinoma cell line (murine, UniProt O35659 22-463)
T1 sequence (looked up): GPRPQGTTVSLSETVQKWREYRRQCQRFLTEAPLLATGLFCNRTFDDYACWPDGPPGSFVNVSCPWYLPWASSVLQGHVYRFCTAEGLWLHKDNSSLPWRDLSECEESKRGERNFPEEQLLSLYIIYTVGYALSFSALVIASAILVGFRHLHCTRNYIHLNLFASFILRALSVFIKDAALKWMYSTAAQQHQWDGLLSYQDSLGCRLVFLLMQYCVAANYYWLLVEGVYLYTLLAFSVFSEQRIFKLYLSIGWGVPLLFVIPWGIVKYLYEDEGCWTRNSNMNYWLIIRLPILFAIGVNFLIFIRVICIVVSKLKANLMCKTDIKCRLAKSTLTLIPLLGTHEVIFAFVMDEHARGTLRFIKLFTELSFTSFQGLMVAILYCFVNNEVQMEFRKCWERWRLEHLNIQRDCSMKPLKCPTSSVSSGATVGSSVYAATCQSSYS

B1: Compound 2: H-H-NMeSer-QGTFTSDYSKYLDS-K(Hexadecanoyl-isoGlu)-AAHDFVEWLLSA-NH2 (peptide)
peptide: H-H[NMeS]QGTFTSDYSKYLDSK([γGlu-Palmitoyl])AAHDFVEWLLSA-NH2
SMILES: CCCCCCCCCCCCCCCC(=O)N[C@@H](CCC(=O)NCCCC[C@H](NC(=O)[C@H](CO)NC(=O)[C@H](CC(=O)O)NC(=O)[C@H](CC(C)C)NC(=O)[C@H](Cc1ccc(O)cc1)NC(=O)[C@H](CCCCN)NC(=O)[C@H](CO)NC(=O)[C@H](Cc1ccc(O)cc1)NC(=O)[C@H](CC(=O)O)NC(=O)[C@H](CO)NC(=O)[C@@H](NC(=O)[C@H](Cc1ccccc1)NC(=O)[C@@H](NC(=O)CNC(=O)[C@H](CCC(N)=O)NC(=O)[C@H](CO)N(C)C(=O)[C@@H](N)Cc1c[nH]cn1)[C@@H](C)O)[C@@H](C)O)C(=O)N[C@@H](C)C(=O)N[C@@H](C)C(=O)N[C@@H](Cc1c[nH]cn1)C(=O)N[C@@H](CC(=O)O)C(=O)N[C@@H](Cc1ccccc1)C(=O)N[C@H](C(=O)N[C@@H](CCC(=O)O)C(=O)N[C@@H](Cc1c[nH]c2ccccc12)C(=O)N[C@@H](CC(C)C)C(=O)N[C@@H](CC(C)C)C(=O)N[C@@H](CO)C(=O)N[C@@H](C)C(N)=O)C(C)C)C(=O)O
B2: Compound 13: H-HPQGTFTSDYSKYLDE-K(Hexadecanoyl-isoGlu)-AAKDFIEWLESA-NH2 (peptide)
peptide: H-HPQGTFTSDYSKYLDEK([γGlu-Palmitoyl])AAKDFIEWLESA-NH2
SMILES: CCCCCCCCCCCCCCCC(=O)N[C@@H](CCC(=O)NCCCC[C@H](NC(=O)[C@H](CCC(=O)O)NC(=O)[C@H](CC(=O)O)NC(=O)[C@H](CC(C)C)NC(=O)[C@H](Cc1ccc(O)cc1)NC(=O)[C@H](CCCCN)NC(=O)[C@H](CO)NC(=O)[C@H](Cc1ccc(O)cc1)NC(=O)[C@H](CC(=O)O)NC(=O)[C@H](CO)NC(=O)[C@@H](NC(=O)[C@H](Cc1ccccc1)NC(=O)[C@@H](NC(=O)CNC(=O)[C@H](CCC(N)=O)NC(=O)[C@@H]1CCCN1C(=O)[C@@H](N)Cc1c[nH]cn1)[C@@H](C)O)[C@@H](C)O)C(=O)N[C@@H](C)C(=O)N[C@@H](C)C(=O)N[C@@H](CCCCN)C(=O)N[C@@H](CC(=O)O)C(=O)N[C@@H](Cc1ccccc1)C(=O)N[C@H](C(=O)N[C@@H](CCC(=O)O)C(=O)N[C@@H](Cc1c[nH]c2ccccc12)C(=O)N[C@@H](CC(C)C)C(=O)N[C@@H](CCC(=O)O)C(=O)N[C@@H](CO)C(=O)N[C@@H](C)C(N)=O)[C@@H](C)CC)C(=O)O
B3: Compound 8: H-H-Ac3c-HGTFTSDYSKYLDS-K(Hexadecanoyl-isoGlu)-AAHDFVEWLLSA-NH2 (peptide)
peptide: H-H[Ac3c]HGTFTSDYSKYLDSK([γGlu-Palmitoyl])AAHDFVEWLLSA-NH2
SMILES: CCCCCCCCCCCCCCCC(=O)N[C@@H](CCC(=O)NCCCC[C@H](NC(=O)[C@H](CO)NC(=O)[C@H](CC(=O)O)NC(=O)[C@H](CC(C)C)NC(=O)[C@H](Cc1ccc(O)cc1)NC(=O)[C@H](CCCCN)NC(=O)[C@H](CO)NC(=O)[C@H](Cc1ccc(O)cc1)NC(=O)[C@H](CC(=O)O)NC(=O)[C@H](CO)NC(=O)[C@@H](NC(=O)[C@H](Cc1ccccc1)NC(=O)[C@@H](NC(=O)CNC(=O)[C@H](Cc1c[nH]cn1)NC(=O)C1(NC(=O)[C@@H](N)Cc2c[nH]cn2)CC1)[C@@H](C)O)[C@@H](C)O)C(=O)N[C@@H](C)C(=O)N[C@@H](C)C(=O)N[C@@H](Cc1c[nH]cn1)C(=O)N[C@@H](CC(=O)O)C(=O)N[C@@H](Cc1ccccc1)C(=O)N[C@H](C(=O)N[C@@H](CCC(=O)O)C(=O)N[C@@H](Cc1c[nH]c2ccccc12)C(=O)N[C@@H](CC(C)C)C(=O)N[C@@H](CC(C)C)C(=O)N[C@@H](CO)C(=O)N[C@@H](C)C(N)=O)C(C)C)C(=O)O
B4: Compound 17: H-H-Aib-QGTFTSDYSKYLDE-K(Hexadecanoyl-isoGlu)-AAKDFIEWLEEE-NH2 (peptide)
peptide: H-H[Aib]QGTFTSDYSKYLDEK([γGlu-Palmitoyl])AAKDFIEWLEEE-NH2
SMILES: CCCCCCCCCCCCCCCC(=O)N[C@@H](CCC(=O)NCCCC[C@H](NC(=O)[C@H](CCC(=O)O)NC(=O)[C@H](CC(=O)O)NC(=O)[C@H](CC(C)C)NC(=O)[C@H](Cc1ccc(O)cc1)NC(=O)[C@H](CCCCN)NC(=O)[C@H](CO)NC(=O)[C@H](Cc1ccc(O)cc1)NC(=O)[C@H](CC(=O)O)NC(=O)[C@H](CO)NC(=O)[C@@H](NC(=O)[C@H](Cc1ccccc1)NC(=O)[C@@H](NC(=O)CNC(=O)[C@H](CCC(N)=O)NC(=O)C(C)(C)NC(=O)[C@@H](N)Cc1c[nH]cn1)[C@@H](C)O)[C@@H](C)O)C(=O)N[C@@H](C)C(=O)N[C@@H](C)C(=O)N[C@@H](CCCCN)C(=O)N[C@@H](CC(=O)O)C(=O)N[C@@H](Cc1ccccc1)C(=O)N[C@H](C(=O)N[C@@H](CCC(=O)O)C(=O)N[C@@H](Cc1c[nH]c2ccccc12)C(=O)N[C@@H](CC(C)C)C(=O)N[C@@H](CCC(=O)O)C(=O)N[C@@H](CCC(=O)O)C(=O)N[C@@H](CCC(=O)O)C(N)=O)[C@@H](C)CC)C(=O)O
B5: Compound 10: H-H-Abu-QGTFTSDYSKYLDE-K(Hexadecanoyl-isoGlu)-AAKDFIEWLESA-NH2 (peptide)
peptide: HTQGTFTSDYSKYLDEKAAKDFIEWLESA
modifications: position 2 is Abu ((S)-2-aminobutyric acid); Lys17 side chain conjugated to hexadecanoyl-isoGlu; C-terminal amide (NH2)
B6: Compound 14: H-H-Ac4c-QGTFTSDYSKYLDE-K(Hexadecanoyl-isoGlu)-AAKDFIEWLESA-NH2 (peptide)
peptide: H-H[Ac4c]QGTFTSDYSKYLDEK([γGlu-Palmitoyl])AAKDFIEWLESA-NH2
SMILES: CCCCCCCCCCCCCCCC(=O)N[C@@H](CCC(=O)NCCCC[C@H](NC(=O)[C@H](CCC(=O)O)NC(=O)[C@H](CC(=O)O)NC(=O)[C@H](CC(C)C)NC(=O)[C@H](Cc1ccc(O)cc1)NC(=O)[C@H](CCCCN)NC(=O)[C@H](CO)NC(=O)[C@H](Cc1ccc(O)cc1)NC(=O)[C@H](CC(=O)O)NC(=O)[C@H](CO)NC(=O)[C@@H](NC(=O)[C@H](Cc1ccccc1)NC(=O)[C@@H](NC(=O)CNC(=O)[C@H](CCC(N)=O)NC(=O)C1(NC(=O)[C@@H](N)Cc2c[nH]cn2)CCC1)[C@@H](C)O)[C@@H](C)O)C(=O)N[C@@H](C)C(=O)N[C@@H](C)C(=O)N[C@@H](CCCCN)C(=O)N[C@@H](CC(=O)O)C(=O)N[C@@H](Cc1ccccc1)C(=O)N[C@H](C(=O)N[C@@H](CCC(=O)O)C(=O)N[C@@H](Cc1c[nH]c2ccccc12)C(=O)N[C@@H](CC(C)C)C(=O)N[C@@H](CCC(=O)O)C(=O)N[C@@H](CO)C(=O)N[C@@H](C)C(N)=O)[C@@H](C)CC)C(=O)O
B7: Compound 9: H-H-Ac4c-HGTFTSDYSKYLDS-K(Hexadecanoyl-isoGlu)-AAHDFVEWLLSA-NH2 (peptide)
peptide: H-H[Ac4c]HGTFTSDYSKYLDSK([γGlu-Palmitoyl])AAHDFVEWLLSA-NH2
SMILES: CCCCCCCCCCCCCCCC(=O)N[C@@H](CCC(=O)NCCCC[C@H](NC(=O)[C@H](CO)NC(=O)[C@H](CC(=O)O)NC(=O)[C@H](CC(C)C)NC(=O)[C@H](Cc1ccc(O)cc1)NC(=O)[C@H](CCCCN)NC(=O)[C@H](CO)NC(=O)[C@H](Cc1ccc(O)cc1)NC(=O)[C@H](CC(=O)O)NC(=O)[C@H](CO)NC(=O)[C@@H](NC(=O)[C@H](Cc1ccccc1)NC(=O)[C@@H](NC(=O)CNC(=O)[C@H](Cc1c[nH]cn1)NC(=O)C1(NC(=O)[C@@H](N)Cc2c[nH]cn2)CCC1)[C@@H](C)O)[C@@H](C)O)C(=O)N[C@@H](C)C(=O)N[C@@H](C)C(=O)N[C@@H](Cc1c[nH]cn1)C(=O)N[C@@H](CC(=O)O)C(=O)N[C@@H](Cc1ccccc1)C(=O)N[C@H](C(=O)N[C@@H](CCC(=O)O)C(=O)N[C@@H](Cc1c[nH]c2ccccc12)C(=O)N[C@@H](CC(C)C)C(=O)N[C@@H](CC(C)C)C(=O)N[C@@H](CO)C(=O)N[C@@H](C)C(N)=O)C(C)C)C(=O)O

Starred links: 1 amine or outer side, 2 acyl side, 3 side chain; linkers in the order of their positions; H or OH if unused. Non-standard residues stand in square brackets, D forms with d. Groups on a side chain read outwards from the residue. *: point of attachment. γGlu = O=C(O)[C@H](CCC(=O)[*:2])N[*:1]; Palmitoyl = CCCCCCCCCCCCCCCC(=O)*; NMeS = CN[C@@H](CO)C(=O)O; Ac4c = NC1(C(=O)O)CCC1; Ac3c = NC1(C(=O)O)CC1; Aib = CC(C)(N)C(=O)O

human glucagon receptor (Glucagon-R), sequence (P47871 26-477): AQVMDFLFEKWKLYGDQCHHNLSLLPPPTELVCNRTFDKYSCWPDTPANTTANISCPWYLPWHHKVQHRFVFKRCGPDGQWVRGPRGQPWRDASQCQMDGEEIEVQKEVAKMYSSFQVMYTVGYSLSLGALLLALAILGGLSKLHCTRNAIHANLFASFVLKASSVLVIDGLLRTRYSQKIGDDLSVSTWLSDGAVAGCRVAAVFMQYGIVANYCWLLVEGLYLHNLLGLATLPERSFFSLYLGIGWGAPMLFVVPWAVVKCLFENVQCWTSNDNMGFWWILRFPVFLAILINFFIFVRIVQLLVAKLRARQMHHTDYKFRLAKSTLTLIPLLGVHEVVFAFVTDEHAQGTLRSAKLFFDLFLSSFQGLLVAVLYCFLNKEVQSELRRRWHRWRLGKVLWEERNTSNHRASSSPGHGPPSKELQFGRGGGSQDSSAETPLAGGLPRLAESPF

One assay addresses human glucagon receptor (Glucagon-R) (human, UniProt P47871 26-477). In words: cell-based or functional assay.
For the molecule B1, the “EC50 hGCGR CHO-K1 [nM] (cAMP, AlphaScreen)” value (from here on “EC50 hGCGR CHO-K1 [nM]”) amounted to 0.24 nM.

For the molecule B2, the “EC50 hGCGR CHO-K1 [nM]” value amounted to 3.19 nM.

As to B3, the “EC50 hGCGR CHO-K1 [nM]” value came out at 1.82 nM.

Regarding B4, the “EC50 hGCGR CHO-K1 [nM]” value turned out to be 0.08 nM.

With B5, the “EC50 hGCGR CHO-K1 [nM]” value stood at 0.1 nM.

Regarding B6, the “EC50 hGCGR CHO-K1 [nM]” value turned out to be 18.3 nM.

For the molecule B7, the “EC50 hGCGR CHO-K1 [nM]” value turned out to be 0.2 nM.

For the next assay, the target named is human glucagon-like peptide 1 receptor (GLP-1R) (human, UniProt P43220 24-463). As to the kind of experiment: cell-based or functional assay.
For the molecule B1, the “EC50 hGLP-1R CHO-K1 [nM] (cAMP, AlphaScreen)” value (shortened to “EC50 hGLP-1R CHO-K1 [nM]”) was 0.92 nM.

B2: the “EC50 hGLP-1R CHO-K1 [nM]” value turned out to be 0.21 nM.

With B3, the “EC50 hGLP-1R CHO-K1 [nM]” value was determined as 0.24 nM.

Turning to B4, the “EC50 hGLP-1R CHO-K1 [nM]” value amounted to 0.27 nM.

With B5, the “EC50 hGLP-1R CHO-K1 [nM]” value was determined as 0.27 nM.

As to B6, the “EC50 hGLP-1R CHO-K1 [nM]” value worked out at 0.68 nM.

Turning to B7, the “EC50 hGLP-1R CHO-K1 [nM]” value is 0.33 nM.

The target of another assay is T1, endogenous GLP-1 receptor of a murine …. As to the kind of experiment: cell-based or functional assay.
For the molecule B1, the “EC50 [nM] (cAMP in murine insulinoma cell line)” value was found to be 0.52 nM.

Turning to B2, the “EC50 [nM] (cAMP in murine insulinoma cell line)” value was determined as 0.14 nM.

Consider B3, for which the “EC50 [nM] (cAMP in murine insulinoma cell line)” value was found to be 0.24 nM.

Turning to B4, the “EC50 [nM] (cAMP in murine insulinoma cell line)” value amounted to 0.21 nM.

With B5, the “EC50 [nM] (cAMP in murine insulinoma cell line)” value amounted to 0.09 nM.

For B6, the “EC50 [nM] (cAMP in murine insulinoma cell line)” value amounted to 0.13 nM.

As for B7, the “EC50 [nM] (cAMP in murine insulinoma cell line)” value was 0.21 nM.

In a further assay the target is endogenous glucagon receptor of primary rat hepatocytes (rat, UniProt P30082 27-485). As to the kind of experiment: cell-based or functional assay.
endogenous glucagon receptor of primary rat hepatocytes, sequence (P30082 27-485): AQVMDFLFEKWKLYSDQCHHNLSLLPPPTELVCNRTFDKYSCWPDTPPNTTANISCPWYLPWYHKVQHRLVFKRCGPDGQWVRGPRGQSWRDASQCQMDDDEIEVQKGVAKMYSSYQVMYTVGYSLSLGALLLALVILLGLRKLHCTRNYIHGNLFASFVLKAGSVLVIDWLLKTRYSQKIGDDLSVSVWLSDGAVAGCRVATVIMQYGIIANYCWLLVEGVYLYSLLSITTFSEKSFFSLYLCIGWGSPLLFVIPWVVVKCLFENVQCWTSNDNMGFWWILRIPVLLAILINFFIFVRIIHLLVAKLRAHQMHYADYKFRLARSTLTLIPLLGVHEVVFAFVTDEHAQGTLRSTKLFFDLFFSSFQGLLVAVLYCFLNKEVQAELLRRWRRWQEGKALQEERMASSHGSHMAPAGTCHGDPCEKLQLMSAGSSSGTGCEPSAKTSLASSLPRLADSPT
As to B1, the “EC50 [nM] (inhibition of glycogen synthesis rate in primary rat hepatocytes)” value is 5.4 nM.

With B2, the “EC50 [nM] (inhibition of glycogen synthesis rate in primary rat hepatocytes)” value was determined as 4 nM.

For B3, the “EC50 [nM] (inhibition of glycogen synthesis rate in primary rat hepatocytes)” value stood at 1.18 nM.

B4: the “EC50 [nM] (inhibition of glycogen synthesis rate in primary rat hepatocytes)” value is 2.26 nM.

Turning to B5, the “EC50 [nM] (inhibition of glycogen synthesis rate in primary rat hepatocytes)” value came to 2.75 nM.

As to B6, the “EC50 [nM] (inhibition of glycogen synthesis rate in primary rat hepatocytes)” value came out at 0.06 nM.

As to B7, the “EC50 [nM] (inhibition of glycogen synthesis rate in primary rat hepatocytes)” value came to 0.07 nM.

The values are drawn from patent US9988429B2, “Glucagon analogues” (Zealand Pharma A/S, priority 2013, dated 2018).
